Measured values as given in paper PMC5824887, “A family of unconventional deubiquitinases with modular chain specificity determinants” (Nature Communications, 2018).

B1: human ZUFSP, full length, bacterially expressed (enzyme, UniProt Q96AP4 1-578, looked up)
chain: MLSCNICGETVTSEPDMKAHLIVHMESEIICPFCKLSGVNYDEMCFHIETAHFEQNTLERNFERINTVQYGTSDNKKDNTLQCGMEVNSSILSGCASNHPKNSAQNLTKDSTLKHEGFYSENLTESRKFLKSREKQSSLTEIKGSVYETTYSPPECPFCGKIEEHSEDMETHVKTKHANLLDIPLEDCDQPLYDCPMCGLICTNYHILQEHVDLHLEENSFQQGMDRVQCSGDLQLAHQLQQEEDRKRRSEESRQEIEEFQKLQRQYGLDNSGGYKQQQLRNMEIEVNRGRMPPSEFHRRKADMMESLALGFDDGKTKTSGIIEALHRYYQNAATDVRRVWLSSVVDHFHSSLGDKGWGCGYRNFQMLLSSLLQNDAYNDCLKGMLIPCIPKIQSMIEDAWKEGFDPQGASQLNNRLQGTKAWIGACEVYILLTSLRVKCHIVDFHKSTGPLGTHPRLFEWILNYYSSEGEGSPKVVCTSKPPIYLQHQGHSRTVIGIEEKKNRTLCLLILDPGCPSREMQKLLKQDIEASSLKQLRKSMGNLKHKQYQILAVEGALSLEEKLARRQASQVFTAEKIP
notes: Zn-finger and UFSP domain protein (ZUFSP), human, cloned from HEK293 cDNA; also called ZUP1; C6orf113; source: E. coli Rosetta (DE3)pLysS, purified (HisTrap, tag removal with Senp1, SEC); not shown: His6, N-terminal, cleaved; Smt3, N-terminal, cleaved
B2: Mug105 from the fission yeast Schizosaccharomyces pombe (enzyme, S. pombe, UniProt O13979 1-244, looked up)
chain: MSKCLQQLKRQLQHFGIDGCSLADGDIDYFFTVTGIDRGWGCGWRNIQMLISWLQYTNPNWFKRNFSSGNYEINSLQSLLLSAWMKGIDAEGYAQLGDNLHGKWIGATEVYSLFTGLFVNVALVDFDFRSEASASNALFLYVKKHFESSNDTSNVSPCYLQFQGHSIIIIGFCSSLETLVVLDPDRYQSVQKKFVNIADFNHCYMRKKRSLKFSQFQLVHFKQNIFLNDFSSKLEVRSTRISDF
notes: Mug105, S. pombe, cloned from genomic DNA; consists only of the core catalytic domain; source: E. coli Rosetta (DE3)pLysS, purified (HisTrap, tag removal with Senp1, SEC); not shown: His6, N-terminal, cleaved; Smt3, N-terminal, cleaved
B3: ZUFSP^232-578 (domain or fragment, human, UniProt Q96AP4 232-578, looked up)
chain: GDLQLAHQLQQEEDRKRRSEESRQEIEEFQKLQRQYGLDNSGGYKQQQLRNMEIEVNRGRMPPSEFHRRKADMMESLALGFDDGKTKTSGIIEALHRYYQNAATDVRRVWLSSVVDHFHSSLGDKGWGCGYRNFQMLLSSLLQNDAYNDCLKGMLIPCIPKIQSMIEDAWKEGFDPQGASQLNNRLQGTKAWIGACEVYILLTSLRVKCHIVDFHKSTGPLGTHPRLFEWILNYYSSEGEGSPKVVCTSKPPIYLQHQGHSRTVIGIEEKKNRTLCLLILDPGCPSREMQKLLKQDIEASSLKQLRKSMGNLKHKQYQILAVEGALSLEEKLARRQASQVFTAEKIP
notes: In the crystal the catalytic Cys-360 is covalently coupled to Ub-PA; also called the construct used for crystallization; source: E. coli Rosetta (DE3)pLysS, purified (HisTrap, tag removal with Senp1, SEC); not shown: His6, N-terminal, cleaved; Smt3, N-terminal, cleaved

Experiments:
[1] = target: T1, propargylated ubiquitin (Ub-PA) (UniProt P0CG48 1-75, propargylamine coupled to the C-terminus of ubiquitin 1-75); test: suicide probe reaction (covalent adduct, SDS-PAGE, Coomassie); DUB prediluted to 10 µM, combined 1:1 with 100 µM probe in 20 mM TRIS pH 7, 150 mM NaCl, 10 mM DTT; 16 h at 4 °C; shifted band on Coomassie-stained gel; conditions: both partners purified
[2] = target: T1, propargylated ubiquitin (Ub-PA); test: crystal structure; covalent complex of ZUFSP^232-578 and Ub-PA (100 µM + 200 µM, 18 h, 4 °C, SEC); crystals from 0.2 M sodium malonate pH 5, 20% PEG 3350, 4 °C; conditions: both partners purified

| Binder | binding result [1] | binding result [2] |
| --- | --- | --- |
| B1 | binds | – |
| B2 | binds | – |
| B3 | – | binds |
